The results in this text go back to paper PMC8276117.

In this assay the target is eHSP90α-His6 (secreted from HEK293) (human) (UniProt P07900). Put plainly: native gel or EMSA. (In general: In EMSA bound probe runs differently from free probe, usually more slowly.)

One may read the stoichiometry N as the number of molecules, sites or subunits per partner or assembly.

For the substance “eHSP90α-His6 (secreted from HEK293) (from UniProt P07900 1-732) (natural protein)”, the stoichiometry N is 2.
